{
  "source": "patent US20170260508A1",
  "about": "(FRED HUTCHINSON CANCER RESEARCH CENTER, published 2017)",
  "data": [
    {"biological_target": "T1, Angptl2-FLAG, full-length human Angptl2 secreted from transfected 293T cells (human, UniProt Q9UKU9 23-493)", "T1 construct": "Runs partly as a high molecular weight (>250 kD) multimer; also called full-length Angptl2; FLAG-tagged Angptl2; not shown: FLAG tag at the C terminus", "T1 sequence": "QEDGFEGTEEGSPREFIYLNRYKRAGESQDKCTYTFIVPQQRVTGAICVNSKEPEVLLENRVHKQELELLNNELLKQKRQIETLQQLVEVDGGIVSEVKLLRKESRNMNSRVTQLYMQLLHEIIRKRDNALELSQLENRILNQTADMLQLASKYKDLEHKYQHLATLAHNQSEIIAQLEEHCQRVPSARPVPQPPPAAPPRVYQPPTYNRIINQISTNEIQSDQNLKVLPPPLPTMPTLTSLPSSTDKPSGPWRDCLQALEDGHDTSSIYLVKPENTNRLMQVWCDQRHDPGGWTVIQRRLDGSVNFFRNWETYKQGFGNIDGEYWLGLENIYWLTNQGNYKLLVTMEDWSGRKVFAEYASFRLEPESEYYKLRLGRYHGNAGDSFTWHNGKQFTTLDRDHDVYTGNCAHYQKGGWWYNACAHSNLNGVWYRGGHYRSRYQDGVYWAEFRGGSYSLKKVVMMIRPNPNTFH", "assay": "flow cytometry, Angptl2 on 293T cells expressing the domain", "procedure": "(§1) Flow cytometry. […] Cells were harvested at 48 h for analysis. […] Anti-LILRB2-PE was used as indicated. Cells were analyzed using either a FACSCalibur or FACSAria instrument (Becton Dickinson).\nLILRB2 contains four extracellular immunoglobulin (Ig)-like domains. Takai et al., J Biomed Biotechnol. 2011; 2011:275302. […] To test this hypothesis, a number of domain and site-specific mutations of LILRB2 were generated for the flow cytometry-based cell surface ligand binding assay and chimeric reporter assay.", "values": [
      {"binder": "LILRB2 Ig1 domain expressed on 293T cells (receptor, The range is stated for the chimeric reporter constructs; also called 1st Ig domain) GTIPKPTLWAEPDSVITQGSPVTLSCQGSLEAQEYRLYREKKSASWITRIRPELVKNGQFHIPSITWEHTGRYGCQYYSRARWSELSDPLVLVMTG", "binding result": "no binding"},
      {"binder": "LILRB2 Ig2 domain expressed on 293T cells (receptor, The range is stated for the chimeric reporter constructs; also called 2nd Ig domain) AYPKPTLSAQPSPVVTSGGRVTLQCESQVAFGGFILCKEGEEEHPQCLNSQPHARGSSRAIFSVGPVSPNRRWSHRCYGYDLNSPYVWSSPSDLLELLVP", "binding result": "no binding"},
      {"binder": "LILRB2 Ig3 domain expressed on 293T cells (receptor, The range is stated for the chimeric reporter constructs; also called 3rd Ig domain) VSKKPSLSVQPGPVVAPGESLTLQCVSDVGYDRFVLYKEGERDLRQLPGRQPQAGLSQANFTLGPVSRSYGGQYRCYGAHNLSSECSAPSDPLDILITGQ", "binding result": "no binding"}
    ]},
    {"biological_target": "T1, Angptl2-FLAG, full-length human Angptl2 …", "assay": "flow cytometry, ligand on mutant LILRB2 (FIG. 6G)", "procedure": "as §1", "values": [
      {"binder": "LILRB2 H92S on 293T cells (receptor) QTGTIPKPTLWAEPDSVITQGSPVTLSCQGSLEAQEYRLYREKKSASWITRIRPELVKNGQFHIPSITWESTGRYGCQYYSRARWSELSDPLVLVMTGAYPKPTLSAQPSPVVTSGGRVTLQCESQVAFGGFILCKEGEEEHPQCLNSQPHARGSSRAIFSVGPVSPNRRWSHRCYGYDLNSPYVWSSPSDLLELLVPGVSKKPSLSVQPGPVVAPGESLTLQCVSDVGYDRFVLYKEGERDLRQLPGRQPQAGLSQANFTLGPVSRSYGGQYRCYGAHNLSSECSAPSDPLDILITGQIRGTPFISVQPGPTVASGENVTLLCQSWRQFHTFLLTKAGAADAPLRLRSIHEYPKYQAEFPMSPVTSAHAGTYRCYGSLNSDPYLLSHPSEPLELVVSGPSMGSSPPPTGPISTPGPEDQPLTPTGSDPQSGLGRHLGVVIGILVAVVLLLLLLLLLFLILRHRRQGKHWTSTQRKADFQHPAGAVGPEPTDRGLQWRSSPAADAQEENLYAAVKDTQPEDGVEMDTRAAASEAPQDVTYAQLHSLTLRRKATEPPPSQEREPPAEPSIYATLAIH", "binding result": "binds"},
      {"binder": "LILRB2 T393E on 293T cells (receptor) QTGTIPKPTLWAEPDSVITQGSPVTLSCQGSLEAQEYRLYREKKSASWITRIRPELVKNGQFHIPSITWEHTGRYGCQYYSRARWSELSDPLVLVMTGAYPKPTLSAQPSPVVTSGGRVTLQCESQVAFGGFILCKEGEEEHPQCLNSQPHARGSSRAIFSVGPVSPNRRWSHRCYGYDLNSPYVWSSPSDLLELLVPGVSKKPSLSVQPGPVVAPGESLTLQCVSDVGYDRFVLYKEGERDLRQLPGRQPQAGLSQANFTLGPVSRSYGGQYRCYGAHNLSSECSAPSDPLDILITGQIRGTPFISVQPGPTVASGENVTLLCQSWRQFHTFLLTKAGAADAPLRLRSIHEYPKYQAEFPMSPVTSAHAGEYRCYGSLNSDPYLLSHPSEPLELVVSGPSMGSSPPPTGPISTPGPEDQPLTPTGSDPQSGLGRHLGVVIGILVAVVLLLLLLLLLFLILRHRRQGKHWTSTQRKADFQHPAGAVGPEPTDRGLQWRSSPAADAQEENLYAAVKDTQPEDGVEMDTRAAASEAPQDVTYAQLHSLTLRRKATEPPPSQEREPPAEPSIYATLAIH", "binding result": "binds"},
      {"binder": "LILRB2 MHC-S1 mutant (R59A/Y61A) on 293T cells (receptor) QTGTIPKPTLWAEPDSVITQGSPVTLSCQGSLEAQEYALAREKKSASWITRIRPELVKNGQFHIPSITWEHTGRYGCQYYSRARWSELSDPLVLVMTGAYPKPTLSAQPSPVVTSGGRVTLQCESQVAFGGFILCKEGEEEHPQCLNSQPHARGSSRAIFSVGPVSPNRRWSHRCYGYDLNSPYVWSSPSDLLELLVPGVSKKPSLSVQPGPVVAPGESLTLQCVSDVGYDRFVLYKEGERDLRQLPGRQPQAGLSQANFTLGPVSRSYGGQYRCYGAHNLSSECSAPSDPLDILITGQIRGTPFISVQPGPTVASGENVTLLCQSWRQFHTFLLTKAGAADAPLRLRSIHEYPKYQAEFPMSPVTSAHAGTYRCYGSLNSDPYLLSHPSEPLELVVSGPSMGSSPPPTGPISTPGPEDQPLTPTGSDPQSGLGRHLGVVIGILVAVVLLLLLLLLLFLILRHRRQGKHWTSTQRKADFQHPAGAVGPEPTDRGLQWRSSPAADAQEENLYAAVKDTQPEDGVEMDTRAAASEAPQDVTYAQLHSLTLRRKATEPPPSQEREPPAEPSIYATLAIH", "binding result": "binds"},
      {"binder": "LILRB2 Q99R on 293T cells (receptor) QTGTIPKPTLWAEPDSVITQGSPVTLSCQGSLEAQEYRLYREKKSASWITRIRPELVKNGQFHIPSITWEHTGRYGCRYYSRARWSELSDPLVLVMTGAYPKPTLSAQPSPVVTSGGRVTLQCESQVAFGGFILCKEGEEEHPQCLNSQPHARGSSRAIFSVGPVSPNRRWSHRCYGYDLNSPYVWSSPSDLLELLVPGVSKKPSLSVQPGPVVAPGESLTLQCVSDVGYDRFVLYKEGERDLRQLPGRQPQAGLSQANFTLGPVSRSYGGQYRCYGAHNLSSECSAPSDPLDILITGQIRGTPFISVQPGPTVASGENVTLLCQSWRQFHTFLLTKAGAADAPLRLRSIHEYPKYQAEFPMSPVTSAHAGTYRCYGSLNSDPYLLSHPSEPLELVVSGPSMGSSPPPTGPISTPGPEDQPLTPTGSDPQSGLGRHLGVVIGILVAVVLLLLLLLLLFLILRHRRQGKHWTSTQRKADFQHPAGAVGPEPTDRGLQWRSSPAADAQEENLYAAVKDTQPEDGVEMDTRAAASEAPQDVTYAQLHSLTLRRKATEPPPSQEREPPAEPSIYATLAIH", "binding result": "binds"},
      {"binder": "LILRB2 G392D on 293T cells (receptor) QTGTIPKPTLWAEPDSVITQGSPVTLSCQGSLEAQEYRLYREKKSASWITRIRPELVKNGQFHIPSITWEHTGRYGCQYYSRARWSELSDPLVLVMTGAYPKPTLSAQPSPVVTSGGRVTLQCESQVAFGGFILCKEGEEEHPQCLNSQPHARGSSRAIFSVGPVSPNRRWSHRCYGYDLNSPYVWSSPSDLLELLVPGVSKKPSLSVQPGPVVAPGESLTLQCVSDVGYDRFVLYKEGERDLRQLPGRQPQAGLSQANFTLGPVSRSYGGQYRCYGAHNLSSECSAPSDPLDILITGQIRGTPFISVQPGPTVASGENVTLLCQSWRQFHTFLLTKAGAADAPLRLRSIHEYPKYQAEFPMSPVTSAHADTYRCYGSLNSDPYLLSHPSEPLELVVSGPSMGSSPPPTGPISTPGPEDQPLTPTGSDPQSGLGRHLGVVIGILVAVVLLLLLLLLLFLILRHRRQGKHWTSTQRKADFQHPAGAVGPEPTDRGLQWRSSPAADAQEENLYAAVKDTQPEDGVEMDTRAAASEAPQDVTYAQLHSLTLRRKATEPPPSQEREPPAEPSIYATLAIH", "binding result": "binds"},
      {"binder": "LILRB2 T93A on 293T cells (receptor) QTGTIPKPTLWAEPDSVITQGSPVTLSCQGSLEAQEYRLYREKKSASWITRIRPELVKNGQFHIPSITWEHAGRYGCQYYSRARWSELSDPLVLVMTGAYPKPTLSAQPSPVVTSGGRVTLQCESQVAFGGFILCKEGEEEHPQCLNSQPHARGSSRAIFSVGPVSPNRRWSHRCYGYDLNSPYVWSSPSDLLELLVPGVSKKPSLSVQPGPVVAPGESLTLQCVSDVGYDRFVLYKEGERDLRQLPGRQPQAGLSQANFTLGPVSRSYGGQYRCYGAHNLSSECSAPSDPLDILITGQIRGTPFISVQPGPTVASGENVTLLCQSWRQFHTFLLTKAGAADAPLRLRSIHEYPKYQAEFPMSPVTSAHAGTYRCYGSLNSDPYLLSHPSEPLELVVSGPSMGSSPPPTGPISTPGPEDQPLTPTGSDPQSGLGRHLGVVIGILVAVVLLLLLLLLLFLILRHRRQGKHWTSTQRKADFQHPAGAVGPEPTDRGLQWRSSPAADAQEENLYAAVKDTQPEDGVEMDTRAAASEAPQDVTYAQLHSLTLRRKATEPPPSQEREPPAEPSIYATLAIH", "binding result": "binds"},
      {"binder": "full-length LILRB2 R95E on 293T cells (receptor, also called single mutation in R95) QTGTIPKPTLWAEPDSVITQGSPVTLSCQGSLEAQEYRLYREKKSASWITRIRPELVKNGQFHIPSITWEHTGEYGCQYYSRARWSELSDPLVLVMTGAYPKPTLSAQPSPVVTSGGRVTLQCESQVAFGGFILCKEGEEEHPQCLNSQPHARGSSRAIFSVGPVSPNRRWSHRCYGYDLNSPYVWSSPSDLLELLVPGVSKKPSLSVQPGPVVAPGESLTLQCVSDVGYDRFVLYKEGERDLRQLPGRQPQAGLSQANFTLGPVSRSYGGQYRCYGAHNLSSECSAPSDPLDILITGQIRGTPFISVQPGPTVASGENVTLLCQSWRQFHTFLLTKAGAADAPLRLRSIHEYPKYQAEFPMSPVTSAHAGTYRCYGSLNSDPYLLSHPSEPLELVVSGPSMGSSPPPTGPISTPGPEDQPLTPTGSDPQSGLGRHLGVVIGILVAVVLLLLLLLLLFLILRHRRQGKHWTSTQRKADFQHPAGAVGPEPTDRGLQWRSSPAADAQEENLYAAVKDTQPEDGVEMDTRAAASEAPQDVTYAQLHSLTLRRKATEPPPSQEREPPAEPSIYATLAIH", "binding result": "binds"},
      {"binder": "full-length LILRB2 G94D on 293T cells (receptor, also called single mutation in G94) QTGTIPKPTLWAEPDSVITQGSPVTLSCQGSLEAQEYRLYREKKSASWITRIRPELVKNGQFHIPSITWEHTDRYGCQYYSRARWSELSDPLVLVMTGAYPKPTLSAQPSPVVTSGGRVTLQCESQVAFGGFILCKEGEEEHPQCLNSQPHARGSSRAIFSVGPVSPNRRWSHRCYGYDLNSPYVWSSPSDLLELLVPGVSKKPSLSVQPGPVVAPGESLTLQCVSDVGYDRFVLYKEGERDLRQLPGRQPQAGLSQANFTLGPVSRSYGGQYRCYGAHNLSSECSAPSDPLDILITGQIRGTPFISVQPGPTVASGENVTLLCQSWRQFHTFLLTKAGAADAPLRLRSIHEYPKYQAEFPMSPVTSAHAGTYRCYGSLNSDPYLLSHPSEPLELVVSGPSMGSSPPPTGPISTPGPEDQPLTPTGSDPQSGLGRHLGVVIGILVAVVLLLLLLLLLFLILRHRRQGKHWTSTQRKADFQHPAGAVGPEPTDRGLQWRSSPAADAQEENLYAAVKDTQPEDGVEMDTRAAASEAPQDVTYAQLHSLTLRRKATEPPPSQEREPPAEPSIYATLAIH", "binding result": "binds"}
    ]}
  ]
}
